Results on nine proteins are retold here after patent publication US11491212.

Usually kcat/KM stands for the turnover number divided by the Michaelis constant.

Sequence of Factor X (FX), P00742 (P00742 whole entry, looked up): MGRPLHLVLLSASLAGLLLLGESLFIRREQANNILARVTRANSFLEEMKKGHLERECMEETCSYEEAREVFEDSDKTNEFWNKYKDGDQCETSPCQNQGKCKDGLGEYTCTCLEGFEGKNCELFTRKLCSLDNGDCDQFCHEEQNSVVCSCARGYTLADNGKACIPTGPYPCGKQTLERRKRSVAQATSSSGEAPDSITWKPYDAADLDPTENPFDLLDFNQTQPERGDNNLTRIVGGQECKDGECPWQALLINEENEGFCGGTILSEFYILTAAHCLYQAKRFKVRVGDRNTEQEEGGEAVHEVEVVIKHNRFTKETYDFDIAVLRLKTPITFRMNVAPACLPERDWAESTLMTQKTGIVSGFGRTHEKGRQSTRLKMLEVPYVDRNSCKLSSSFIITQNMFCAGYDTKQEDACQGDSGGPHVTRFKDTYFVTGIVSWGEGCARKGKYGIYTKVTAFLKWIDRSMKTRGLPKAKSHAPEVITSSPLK
Sequence of Factor X, P00742 (P00742 whole entry, looked up): as above

B1: FIXa K247N/N249S/R318Y/R338E/T343R/E410N (protein)
chain 1: not shown
chain 2: not shown
Consider B1, for which, in the series with Factor X, P00742, the “% of WT kcat/KM” value is listed as 687% and the kcat/KM came to 3.2e+08 M⁻¹ s⁻¹.

B2: FIXa K247N/N249S/R318Y/T343R/R403E/E410N (protein)
chain 1: not shown
chain 2: not shown
As to B2, in the series with Factor X, P00742, the “% of WT kcat/KM” value was 279% and the kcat/KM was 1.3e+08 M⁻¹ s⁻¹.

B3: FIXa Y155F/K247N/N249S/R318Y/T343R/R403E/E410N (protein)
chain 1: not shown
chain 2: not shown
On to B3, for which, in the series with Factor X, P00742, the “% of WT kcat/KM” value worked out at 350% and the kcat/KM is 1.6e+08 M⁻¹ s⁻¹.

B4: FIXa-K247N/N249S/R318Y/R338E/E410N (protein)
chain 1: not shown
chain 2: not shown
Turning to B4, in the series with Factor X (FX), P00742, the “% of WT kcat/KM (against Catalyst Biosciences WT FIXa)” value amounted to 501% and the kcat/KM for activation of FX by FIXa in the Xase complex (FVIIIa, PC/PS vesicles, Ca2+), fluorogenic Spectrafluor FXa read-out is 2.3e+08 M⁻¹ s⁻¹.

B5: FIXa-R318Y/R338E/E410S (protein)
chain 1: not shown
chain 2: not shown
Regarding B5, in the series with Factor X (FX), P00742, the “% of WT kcat/KM (against Catalyst Biosciences WT FIXa)” value was found to be 708% and the kcat/KM for activation of FX by FIXa in the Xase complex (FVIIIa, PC/PS vesicles, Ca2+), fluorogenic Spectrafluor FXa read-out stood at 3.3e+08 M⁻¹ s⁻¹.

B6: FIXa-D104N/K106S/K247N/N249S/R318Y/R338E/R403E/E410N (protein)
chain 1: not shown
chain 2: not shown
As to B6, in the series with Factor X (FX), P00742, the “% of WT kcat/KM (against Catalyst Biosciences WT FIXa)” value turned out to be 192% and the kcat/KM for activation of FX by FIXa in the Xase complex (FVIIIa, PC/PS vesicles, Ca2+), fluorogenic Spectrafluor FXa read-out was found to be 8.8e+07 M⁻¹ s⁻¹.

B7: FIXa-K247N/N249S/R318Y/R338E/R403E/E410N (protein)
chain 1: not shown
chain 2: not shown
B7: in the series with Factor X (FX), P00742, the “% of WT kcat/KM (against Catalyst Biosciences WT FIXa)” value was determined as 331% and the kcat/KM for activation of FX by FIXa in the Xase complex (FVIIIa, PC/PS vesicles, Ca2+), fluorogenic Spectrafluor FXa read-out is 1.5e+08 M⁻¹ s⁻¹.

B8: FIXa Y155F/K247N/N249S/R338E/E410N (protein)
chain 1: not shown
chain 2: not shown
As for B8, in the series with Factor X, P00742, the “% of WT kcat/KM” value came out at 1009% and the kcat/KM is 4.7e+08 M⁻¹ s⁻¹.

B9: FIXa-D104N/K106S/Y155F/K228N/K247N/N249S (protein)
chain 1: not shown
chain 2: not shown
B9: in the series with Factor X (FX), P00742, the “% of WT kcat/KM (against Catalyst Biosciences WT FIXa)” value was 137% and the kcat/KM for activation of FX by FIXa in the Xase complex (FVIIIa, PC/PS vesicles, Ca2+), fluorogenic Spectrafluor FXa read-out stood at 6.3e+07 M⁻¹ s⁻¹.
